# Data taken from PMC6889914, “Identifying dynamic, partially occupied residues using anomalous scattering” (Acta Crystallographica. Section D, Structural Biology, 2019).
# Where no end group is shown, it is not given here. [ ]: non-standard residue; d: D form. Phe(4-I) = N[C@@H](Cc1ccc(I)cc1)C(=O)O
# B1: Im7 6–26 peptide (wild type) (peptide)
# peptide: SISDYTEAEFVQLLKEIEKEN
# notes: also called wild-type Im7 6–26 peptide; Im7 peptide
# B2: Im7 6–26 peptide K20pI-Phe (peptide)
# peptide: SISDYTEAEFVQLLFEIEKEN
# notes: also called L20pI-Phe (as misprinted in places)
# B3: Im7 6–26 peptide L19pI-Phe (peptide)
# peptide: SISDYTEAEFVQL[Phe(4-I)]KEIEKEN
# B4: Im7 6–26 peptide L18pI-Phe (peptide)
# peptide: SISDYTEAEFVQ[Phe(4-I)]LKEIEKEN
# Columns and labels:
# [1] = target: T1, Spy H96L (UniProt P77754 24-161, H96L); assay: ITC; MicroCal iTC200; titration of Spy H96L (1.25 mM) with the Im7 6–26 peptides (0.11 µM wild type, 0.055 µM pI-Phe peptides); 10°C; 40 mM HEPES–NaOH pH 7.5, 100 mM NaCl; 2 µl injections at 180 s; one-site model; conditions: both partners purified
# T1 construct: also called Super Spy chaperone mutant Spy H96L
# T1 sequence (looked up): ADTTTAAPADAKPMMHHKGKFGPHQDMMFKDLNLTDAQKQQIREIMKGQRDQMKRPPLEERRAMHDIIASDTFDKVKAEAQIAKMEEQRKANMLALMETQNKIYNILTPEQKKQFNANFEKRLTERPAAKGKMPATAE
# [2] = target: T2, Spy H96L (UniProt P77754 24-161, H96L); assay: ITC
# T2 sequence: T1 sequence (looked up)
Binder,Kd [1],Ka [2],binding result [1]
B1,7.8 ± 0.6 µM,102000 M⁻¹,–
B2,–,218000 M⁻¹,binds
B3,–,219000 M⁻¹,binds
B4,–,1.59e+06 M⁻¹,binds
